The source of these data is publication doi:10.1101/2023.08.25.554718.

Common to all, as to test: EMSA
Common to all, as to details: EMSA: 20 mM HEPES pH 7.3, 150 mM NaCl, 0.5 mM TCEP, 30 min room temperature, 0.5 uM nucleosome or DNA, FRET: 20 mM HEPES pH 7.1, 100 mM NaCl
For orientation: Mobility shift assays separate free from complexed probe on a gel.

The target of series [1] is PU.1 ETS Q218H Q218H (mouse) (UniProt P17433).
A further series concerns the target MBP-DBD C/EBPalpha (UniProt P53566).
Series [2] deals with PU.1 ETS (ETSPU.1) (mouse) (UniProt P17433).

Chain of MBP-DBD C/EBPalpha (P53566 214-359): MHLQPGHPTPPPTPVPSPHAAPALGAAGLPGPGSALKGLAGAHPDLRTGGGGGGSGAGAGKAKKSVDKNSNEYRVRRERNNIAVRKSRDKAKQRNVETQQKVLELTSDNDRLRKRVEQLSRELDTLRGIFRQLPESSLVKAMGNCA

One may read the Kd as a measure of binding affinity in units of concentration. High values mean weaker binding, low ones tighter binding. As to “TAGGTGCAGGGCCTCTCGGCTGCTGATCTTCAGCTGGTTGCTGAGAGTTGCAGCATTGCTGAGTCTTAGCAATGGATACTTCCCGATTCCCCTCACAAAAATAGGTCAGTCTGTCTGGCTAGTTCTGTACTTGCAGACACAGGGCATGTGGGGTTCCTATTT (double strand) [162 bp CX3CR1 nucleosome]”, in series [1], the binding signal (fold reduction in affinity vs WT) was 2. The sequence further yielded a Kd with MBP-DBD C/EBPalpha of 1700 nM.

“TAGGTGCAGGGCCTCTCGGCTGCTGATCTTCAGCAACTTGCTGAGAGTTGCAGCATTGCTGAGTCTTAGCAATGGATACTTCCCGATTCCCCTCACAAAAATAGGTCAGTCTGTCTGGCTAGTTCTGTACTTGCAGACACAGGGCATGTGGGGTTCCTATTT (double strand) [Cmut CX3CR1 nucleosome]” showed a Kd with MBP-DBD C/EBPalpha of 2400 nM.

In the case of “TAGGTGCAGGGCCTCTCGGCTGCTGATCTTCAGCTGGTTGCTGAGAGTTGCAGCATTGCTGAGTCTTAGCAATGGATACTTCCCGATTCCCCTCACAAAAATAGGTCAGTCTGTCTGGCTAGTTCTGTACTTGCAGACACAGGGCATGTGGGGTTCCTATTT (double strand) [162 bp CX3CR1 nucleosome, 3A H2A (K75A;K76A;T77A)]”, the fold reduction in binding affinity (fold reduction in affinity vs WT H2A) in series [2] is 3.
